From patent publication US9884094B2, “Method of treating diabetes mellitus” (Novo Nordisk A/S, priority 2012, dated 2018)

How the values were obtained:
[1] = Hydrophobicity k′rel by RP-HPLC relative to human insulin; type: physicochemical; details: LiChrosorb RP18, isocratic, 40° C., pH 7.3
Method: The elution was monitored by following the UV absorption of the eluate at 214 nm. Void time, t0, was found by injecting 0.1 mM sodium nitrate.

human insulin receptor = human insulin receptor (Homo sapiens, UniProt P06213); test: Insulin receptor binding, SPA antibody capture assay (Assay I); details: recombinant human insulin receptor, A14 Tyr[125I]-human insulin
Method: A total of 100 μl was then added and a dilution series is made from appropriate samples. […] The phases were the then separated by centrifugation for 1 min and the plates counted in a Topcounter. The binding data were fitted using the nonlinear regression algorithm in the GraphPad Prism 2.01 (GraphPad Software, San Diego, Calif.).
Specific antibodies (F12) were produced by monoclonal technique: RBF mice were immunized by injecting 50 μg of purified mIR in FCA subcutaneously followed by two injections with 20 μg of mIR in FIA. […] Supernatants were screened for antibody production in a mIR specific ELISA. Positive wells were cloned and tested in Western blotting.

Sequence of human insulin receptor (P06213 28-1370 isoform P06213-2 limits assumed): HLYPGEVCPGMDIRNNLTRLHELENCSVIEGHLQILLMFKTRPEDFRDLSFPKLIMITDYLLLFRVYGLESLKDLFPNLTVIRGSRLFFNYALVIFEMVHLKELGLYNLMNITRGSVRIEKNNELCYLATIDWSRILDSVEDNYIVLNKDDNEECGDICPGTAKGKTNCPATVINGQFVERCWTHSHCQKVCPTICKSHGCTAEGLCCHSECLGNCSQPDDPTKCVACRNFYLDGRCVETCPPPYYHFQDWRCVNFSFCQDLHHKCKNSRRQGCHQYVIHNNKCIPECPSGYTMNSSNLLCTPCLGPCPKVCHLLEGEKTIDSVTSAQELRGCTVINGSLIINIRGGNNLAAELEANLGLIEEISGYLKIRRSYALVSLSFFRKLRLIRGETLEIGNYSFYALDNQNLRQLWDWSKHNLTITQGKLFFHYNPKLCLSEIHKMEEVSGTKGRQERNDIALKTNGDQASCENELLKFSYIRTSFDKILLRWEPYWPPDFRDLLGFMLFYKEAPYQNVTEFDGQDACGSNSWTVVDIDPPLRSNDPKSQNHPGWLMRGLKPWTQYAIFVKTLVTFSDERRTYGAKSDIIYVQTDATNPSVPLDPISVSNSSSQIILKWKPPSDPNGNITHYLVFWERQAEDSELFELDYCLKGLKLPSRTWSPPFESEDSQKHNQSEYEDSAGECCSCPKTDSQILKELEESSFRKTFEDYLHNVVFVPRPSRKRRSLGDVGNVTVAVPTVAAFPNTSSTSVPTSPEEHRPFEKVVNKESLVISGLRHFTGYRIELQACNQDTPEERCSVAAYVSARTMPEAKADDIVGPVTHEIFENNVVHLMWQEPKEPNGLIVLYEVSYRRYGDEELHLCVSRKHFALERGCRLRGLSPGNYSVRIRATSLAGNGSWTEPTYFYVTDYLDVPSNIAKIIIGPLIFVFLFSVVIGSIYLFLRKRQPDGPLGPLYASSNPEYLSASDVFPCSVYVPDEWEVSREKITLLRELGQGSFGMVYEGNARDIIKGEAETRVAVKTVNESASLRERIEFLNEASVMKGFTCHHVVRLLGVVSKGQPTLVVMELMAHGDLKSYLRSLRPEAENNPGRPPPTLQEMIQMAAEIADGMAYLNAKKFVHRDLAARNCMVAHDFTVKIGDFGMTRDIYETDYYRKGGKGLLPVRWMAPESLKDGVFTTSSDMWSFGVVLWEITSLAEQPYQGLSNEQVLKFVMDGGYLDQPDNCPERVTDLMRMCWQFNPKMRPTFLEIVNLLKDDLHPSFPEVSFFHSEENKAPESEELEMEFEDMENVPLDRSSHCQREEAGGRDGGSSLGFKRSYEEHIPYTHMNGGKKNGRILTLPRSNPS

| Receptor binding (% of human insulin) (human insulin receptor) | Substance | k′rel (hydrophobic index relative to human insulin) [1] |
| --- | --- | --- |
| 9.4 % of human insulin | N^εB29—[N—(HOOC(CH2)16CO)—N-(carboxymethyl)-β-Ala] des(B30) Human Insulin | – |
| 9.4 % of human insulin | N^εB29—(N-(L-Glu-OC(CH2)14CO—) des(B30) Human Insulin | 1.17 |

Continued, substance first:

| Substance | Receptor binding (% of human insulin) (human insulin receptor) | k′rel (hydrophobic index relative to human insulin) [1] |
| --- | --- | --- |
| N^εB29—(N—(HOOC(CH2)14CO-ε-L-LysCO—) des(B30) Human Insulin | 5.7 % of human insulin | 0.90 |
| N^εB29—(N^α—(HOOC(CH2)16CO)-γ-Glu-N-(γ-Glu)) des(B30) Human Insulin | – | 1.17 |
| N^εB29—(N-(L-Sar-OC(CH2)13CO-γ-L-Glu) des(B30) Human Insulin | 20 % of human insulin | 0.63 |
| NεB29-(Nα—(HOOC(CH2)16CO)-γ-Glu) des(B30) Human Insulin | 9.2 % of human insulin | 1.15 |
